This data set in a line: label from the status in PepcDB records.

On to “MKVNKRVLSIGLAISLIMAGAPNINALSSIEKIQGKDRYETAAKIAQKQTYENVVLVNTDNTLADGLSASGLAGTVKAPILLSQRNSIPSDTEKMLKDVKKVYIIGTEDSIGKSVENELKQKGIEVKRIGGNDRIETSYLIAKEIASIKPIDKVFITNGYTGEADAMSASSVASRDGAPIILTNGKNVPFEKKEGVQCYALGSEEIISNDLVKKTNSVRLAGEDRFETNKKVIKHFYSSAKEFYLSKGYQLVDAVAGSSIAKNAPIVLVDGNSDKSVLRSADKITALGGIDEKTLEQCLSASSLDASAPTITVGNLNIYQGDKFDISKLNIVAKDSNGNDLTPELIGNINTDKVGKYKVTIKATDIGGKTTSISVEVNVLEYKTNDMNSSEFKRMVSSEMYSLVNSYRKEKGKEPLQVSENLQGMANYWSKYMADKGEFAHVINGKNAAEVFSGGIRSEENIAFVPLTTKSTYTTKDAREVANVIFTVWKKSDKYNENMLSSKFAYTGFGLYILPDGQVYATQEFLNK”, for which the protein production result was “failed”.

Regarding “MKVRAIKSFLVTTMAMTFLVSMGQGSILTKANTINNMKYVTEAFGAIPTEEQVSYQKEELTAFIHFGVNTFTGREWGDGTENPEIFNPTNLDADQWVKTLADAGFGRVILTAKHHDGFCLWDSAYTKHDVASSPWKNGKGDVVKEVSEACAKYNIKFGVYLSPWDQNSEHYGEGNGGDYNEFYMNQLRELLTNYGPIAEVWMDGAKGSNVKQEYNFEEWFALIKELQPECLIFSPQGPDIRWIGNEKGYAGEPCWSTIDIEKMKERENPTYLNNGEEGGPDWVVGESDVSIRPGWFYHESQDNEVKSLEKMMDIYFKSIGRNSVLLLNVPPNKEGKLHENDVNRLKEFGETIKELFNDDLALNKEVIVDGFANRDETYGANKIVDGDYDTYWAPDNSSKTGTIEIDLGESKEFDVISLQEYIPLGQRVSSFNVEVLQGENWNKVYEGKTIGYKRLVRIAPTKGEKIRINITGSLEVPLINNVGVYKQPTSIELPSGPPAGLKVLNDDNKGNELEQFNFSDGWVYETIHGENDLGGDAHYTSKTNATVNIKFNGTKFFLSGTKDSGHGIMEISIDGENPVEVDLYSPNRKSKEIVFESEDLSDGEHEVTVKCTGRKNSSSRGTAAHIDGAYVLDNGGKGMVEFEKVGYEVSENIGTATFKVIRKGGSNGKLEVNYDTLAGTALNGVDYQTWSGTLAFNEGETEKTFDITIIDDKEKEEPKEFYLKLSDPIGGILGFNSRATVTINDDEQIK”, the protein production result is “failed”.

As for “MKVTQNENLKLAQRGAFLSLVIYIILSIAKYMTGYVYDSAAVRADALNNMTDILVSVAVIVGLKISIKPADQNHPYGHLKSENISTLLVSFIIMFVGIQVIIENFPRLFTHDSHIPNFITIIISMISGLVMLCVFAINYRLSKRTKSSSLKSAAKDNLSDSLVSIGTAIGLMFTQIGFPIIDIILANILGLLIVYTGFGIFKESIFTLSDGFNEQDLEEYRLDILEVEDVIDVNNIKGRYHGSSIFIDVTIVVDPYLSLYEAHQICDKVEIHLHNKGISSVYVHPEPYTTKDEVK”, the protein production result was “failed”.

For “MKVTVVSRSGREVLKAPLDLPDSATVADLQEAFHKRAKKFYPSRQRLTLPVTPGSKDKPVVLNSKKSLKEYCDGNNNSLTVVFKDLGAQVSYRTLFFFEYLGPLLIYPVFYYFPVYKFLGYGEDCVIHPVQTYAMYYWCFHYFKRILETFFVHRFSHATSPIGNVFRNCAYYWSFGAYIAYYVNHPLYTPVSDLQMKIGFGFGLVCQVANFYCHILLKNLRDPSGAGGYQIPRGFLFNIVTCANYTTEIYQWLGFNIATQTIAGYVFLAVAALIMTNWALGKHSRLRKIFDGKDGKPKYPRRWVILPPFL”, the protein production result was “failed”.

For the sequence “MKVYDVTAPIYEGMPVYKNKPEKQPKRTTITNGYVTESRIDMDVHTGTHIDAPLHMVEGGATFETIPLNDLVGPCKLFDLTHVNDRITKDDIAHLDIQEGDFVLFKTKNSFEDAFHFEFIFVAEDAARYLADKQIRGVGIDALGIERAQEGHPTHKTLFSAGVIIIEGLRLKDVPEGRYFMVAAPLKLVGTDAAPARVLLFDREP”, the protein production entry was “not failed”.

Turning to “MKWSEISIHTTEEAVEAVSHILHEAGASGVAIEDPAELTKEREQQYGEIYALNPDEYPAEGVLIKAYFPQTDSLHETIAGVKSSIDVLPSYDIEIGTGNITVNEVNEEDWATAWKKYYHPVQISDTFTIVPTWEEYTPSSPEEKIIELDPGMAFGTGTHPTTTMCIRALEKTVQPGDTIIDVGTGSGVLSIAAAKLGASSVQAYDLDPVAVESAEMNVRLNKTDDVVSVGQNSLLEGIEGPVDLIVANLLAEIILLFPEDAARVVKSGGLFITSGIIAAKEKVISEALEKAGFTIEEVLRMEDWVAIIARNA”, the protein production entry is reported as “failed”.

For “MKYDVVVVGSGVAGPIVARDVAKAGFSVLLVDKKPAIGTPKQCAEGINVNVFKEFDIPYDKRFINREIYGARIYSPSGYTAELRYDKVSGVILERKVFDKMLAYYAAKAGADVWARTEVIDLLRKEGKIMGVKAKHEGELVEIEAKIIVAADGVESTVARLAGINTYAPPHEFDSAYEYEMIIEGYDPDLIHLWFGNEIAPRGYVWVFPKDEDRANVGIGINSDNEKTAKYYLDKWLKENNIPTKKILEINVGLVPVGGFVRELVKENVAVVGDAARQVNPVHGGGMYEAMKAANILAKWIVKALEEENLELLKNYTKEWWEVEGPKMERLLKLRRAMEKLTDEDIDVFVQLLGGTDLEKLAGGNYFEVVKALMKHPKVLMSKRRLEILKALL”, the protein production entry is listed as “not failed”.

For “MKYIIIGLGNYGGVLAEELSVLGHEVIGVDTNEHRVDVLKDKIATSFIIDATDEQSLSVLPLKDVDVVIVAIGENFGASVRVVALLKKKGVKHIYARAVDDVHKTVLEAFNLDSILTPEKEAARSLVQLLDLHVNVESFQIDEEHYVMKFKLPSCFVGYKVSDLSLETEFNIKIIALIKGEKVLNGLGISILEHQVENHFEENYELEEEDQLVCYGLYKNFMDFWKAL”, the protein production result is “failed”.

Turning to “MKYIINHSNDTAFNIALEEYAFKHLLDEDQIFLLWINKPSIIVGRHQNTIEEINRDYVRENGIEVVRRISGGGAVYHDLNNLNYTIISKEDENKAFDFKSFSTPVINTLAQLGVKAEFTGRNDLEIDGKKFCGNAQAYINGRIMHHGCLLFDVDLSVLANALKVSKDKFESKGVKSVRARVTNIINELPKKITVEKFRDLLLEYMKKEYPEMTEYVFSEEELAEINRIKDTKFGTWDWNYGKSPEFNVRRGIKFTSGKVEVFANVTESKIQDIKIYGDFFGIEDVAAVEDVLRGVKYEREDVLKALKTIDITRYFAGISREEIAEAVVG”, the protein production result was “not failed”.

Turning to “MKYLCLIYFDEAKLAAVPAEELAAIVDECMTYSDQLGKAGHYIASHALQSVQTATTLRHQGGRLAMTDGPFAETKEQLGGFYLIEARDLNQALQIAAKIPPGRLGCVEVRPVKEWE”, the protein production entry is “not failed”.

For “MKYLLLPVVVLLAGCQSLSQSDGNAITDNSDSQVETAHPVEINQALLADESIDVIHPVADVDFSLNNTLKDQKAIDENNIWPRIRSQLTFDIPNQKRLVSQRNWYVKHPSYLKRVAKRAEPFLYYIVQELEKNDMPIELAFLPIVESAFDPFAYSHGRASGMWQFVPGTGERFGMKQNWWYDGRRDVVASTEGAIKYLKYLHKFFDGDWMLALAAYNSGEGRVRNAVRKNKRLGKPTDFWSLDLPKETRAYVPKLLALADIVKRPEDFNLSLYSIDNKSVLSQVDIKSQLDLAKAATLAGLSLAELQRLNPGFNRWATDPDGPHRLLLPSHTVEKFELGLSKLSKKDRLAWQRYKIKSGDNLGLIANKFNTRVDLIQQVNNIKGNQIRAGKHLLIPVAAKSLDSYVFSQEQRIAKKQNRPQKGRKLVHTVKSGDNLWDIGRKYKVNSKSIAKWNGFAPRDTLKLGQKLVIWQKSDTKSNKSNFANSKTGNNVENAIMRNITYKVRRGDSFARIADKFNVRISDIERWNNLDRKKYLQPGQRLKLSVDVTNNI”, the protein production result is “failed”.

Regarding “MLAAWLGCVLPAGAGLPVETLRVPPGFRVELLTEAMPSAREMALSPAGILYVGSRTGKVYALPLQVPGATVRVVASGLEQPVGVAWRDGSLYVSAVSRVVRLDRIDSRLDDPPVPVVVSDRFPTETHHGWKFIAFGPDGKLYVPVGAPCNVCHRDEDRYANLMRMNADGSSLEVVARGIRNTVGFDWHPVTHELWFTDNGADMMGDDVPDDELNRITAPGQHFGYPFCHAGDVPDPEFGAGHPCSRYVPPVGKLGAHVAALGMRFYTGSNFPQAYRHNLFIAEHGSWNRSSKVGYRVVRVVLDAAGKVVRQEPFVEGWLRGERAWGRPVDVLVAPDGSLLVSDDYAGAVYRVRYTGKLEHHHHHH”, the protein production entry was “failed”.

The values are drawn from a protein production outcome set (Wang et al. 2014).
